Source: paper doi:10.1101/2021.05.16.444004 (bioRxiv, 2021)

Target: SARS-CoV-2 RBD-SD1 (SARS-CoV-2, Wuhan-Hu-1, UniProt P0DTC2)
Test: BLI

B1: 54042-4 IgG (antibody, V domains shown)
VH: QITLKESGPTLVKPTQTLTLTCTFSGFSLSTIGVGVSWIRQPPGKALDWLALIYWDDDKRYSPSLKSRLTVTMDTSKNQVVLTLTNMDPVDTATYFCAHGLFSSSDWGGLDVWGQGTTVTVSS
VL: DMQMTQSPSSLSASVGDRVTITCRASQSVFTYLNWYQQKPGKAPKLLIYAASRLQSGVPSRFRGSGSGTDFTLTISSLQPEDFATYYCQQSHSTPFIFGPGTKVDIK
Kd: 0.0218 µM
